Reference: patent publication US20220153862A1 (CSPC MEGALITH BIOPHARMACEUTICAL, published 2022)
Residue numbers refer to the chain shown, from its start.

B1: HC1/LC5 (antibody, human IgG1, kappa, V domains shown)
VH: QVQLVQSGAEVKKPGASVKVSCKASGYTFTDYSINWVRQAPGQGLEWMGVISTYYGDASYNQKFKGRVTMTTDTSTSTAYMELRSLRSDDTAVYYCARYGDGYNQFDYWGQGTMVTVSS
VL: DIQMTQSPSSLSASVGDRVTITCRVSESVDSYGNNFMHWYQQKPGKAPKLLIYRASNLESGVPSRFSGSGSGTDFTFTISSLQPEDIATYYCQQSYEDPYTFGGGTKLEIKR
notes: Humanized anti-TROP2 antibody; also called DP002-HC1LC5
B2: HC5/LC3 (antibody, human IgG1, kappa, V domains shown)
VH: EVQLVQSGAEVKKPGESLKISCKGSGYTFTDYSINWVRQMPGKGLEWMGVISTYYGDASYNQKFKGQVTISADKSISTAYLQWSSLKASDTAMYYCARYGDGYNQFDYWGQGTLVTVSS
VL: DIVMTQSPLSLPVTPGEPASISCRVSESVDSYGNNFMHWYLQKPGQSPQLLIYRASNLESGVPDRFSGSGSGTDFTLKISRVEAEDVGVYYCQQSYEDPYTFGGGTKVEIKR
notes: Humanized anti-TROP2 antibody
B3: HC5/LC1 (antibody, human IgG1, kappa, V domains shown)
VH: B2 VH
VL: DIVMTQSPDSLAVSLGERATINCRVSESVDSYGNNFMHWYQQKPGQPPKLLIYRASNLESGVPDRFSGSGSGTDFTLTISSLQAEDVAVYYCQQSYEDPYTFGQGTKLEIKR
notes: Humanized anti-TROP2 antibody
B4: HC5/LC4 (antibody, human IgG1, kappa, V domains shown)
VH: B2 VH
VL: EIVLTQSPATLSLSPGERATLSCRVSESVDSYGNNFMHWYQQKPGQAPRLLIYRASNLESGIPARFSGSGSGTDFTLTISSLEPEDFAVYYCQQSYEDPYTFGGGTKVEIKR
notes: Humanized anti-TROP2 antibody
B5: HC5/LC2 (antibody, human IgG1, kappa, V domains shown)
VH: B2 VH
VL: B2 VL with I2V, P15L, E17Q, Y40F, L41Q, K43R, Q49R, L50R
notes: Humanized anti-TROP2 antibody
B6: HC2/LC5 (antibody, human IgG1, kappa, V domains shown)
VH: B1 VH with T72R, A79V, R84S, D89E, M114L
VL: B1 VL
notes: Humanized anti-TROP2 antibody
B7: HC2/LC4 (antibody, human IgG1, kappa, V domains shown)
VH: B1 VH with T72R, A79V, R84S, D89E, M114L
VL: B4 VL
notes: Humanized anti-TROP2 antibody
B8: HC5/LC5 (antibody, human IgG1, kappa, V domains shown)
VH: B2 VH
VL: B1 VL
notes: Humanized anti-TROP2 antibody
B9: HC2/LC1 (antibody, human IgG1, kappa, V domains shown)
VH: B1 VH with T72R, A79V, R84S, D89E, M114L
VL: B3 VL
notes: Humanized anti-TROP2 antibody
B10: HC2/LC3 (antibody, human IgG1, kappa, V domains shown)
VH: B1 VH with T72R, A79V, R84S, D89E, M114L
VL: B2 VL
notes: Humanized anti-TROP2 antibody
B11: HC4/LC2 (antibody, human IgG1, kappa, V domains shown)
VH: B1 VH with A16S, M70I, T72A, T74E, R84S, D89E, M114L
VL: B2 VL with I2V, P15L, E17Q, Y40F, L41Q, K43R, Q49R, L50R
notes: Humanized anti-TROP2 antibody
B12: HC1/LC4 (antibody, human IgG1, kappa, V domains shown)
VH: B1 VH
VL: B4 VL
notes: Humanized anti-TROP2 antibody
B13: HC3/LC4 (antibody, human IgG1, kappa, V domains shown)
VH: B1 VH with G44R, M70I, T72R, T76A, R84S, D89E, M114L
VL: B4 VL
notes: Humanized anti-TROP2 antibody
B14: HC3/LC2 (antibody, human IgG1, kappa, V domains shown)
VH: B1 VH with G44R, M70I, T72R, T76A, R84S, D89E, M114L
VL: B2 VL with I2V, P15L, E17Q, Y40F, L41Q, K43R, Q49R, L50R
notes: Humanized anti-TROP2 antibody
B15: HC1/LC3 (antibody, human IgG1, kappa, V domains shown)
VH: B1 VH
VL: B2 VL
notes: Humanized anti-TROP2 antibody
B16: HC4/LC4 (antibody, human IgG1, kappa, V domains shown)
VH: B1 VH with A16S, M70I, T72A, T74E, R84S, D89E, M114L
VL: B4 VL
notes: Humanized anti-TROP2 antibody
B17: HC3/LC1 (antibody, human IgG1, kappa, V domains shown)
VH: B1 VH with G44R, M70I, T72R, T76A, R84S, D89E, M114L
VL: B3 VL
notes: Humanized anti-TROP2 antibody
B18: HC3/LC3 (antibody, human IgG1, kappa, V domains shown)
VH: B1 VH with G44R, M70I, T72R, T76A, R84S, D89E, M114L
VL: B2 VL
notes: Humanized anti-TROP2 antibody
B19: HC4/LC3 (antibody, human IgG1, kappa, V domains shown)
VH: B1 VH with A16S, M70I, T72A, T74E, R84S, D89E, M114L
VL: B2 VL
notes: Humanized anti-TROP2 antibody
B20: HC2/LC2 (antibody, human IgG1, kappa, V domains shown)
VH: B1 VH with T72R, A79V, R84S, D89E, M114L
VL: B2 VL with I2V, P15L, E17Q, Y40F, L41Q, K43R, Q49R, L50R
notes: Humanized anti-TROP2 antibody
B21: HC3/LC5 (antibody, human IgG1, kappa, V domains shown)
VH: B1 VH with G44R, M70I, T72R, T76A, R84S, D89E, M114L
VL: B1 VL
notes: Humanized anti-TROP2 antibody
B22: HC4/LC1 (antibody, human IgG1, kappa, V domains shown)
VH: B1 VH with A16S, M70I, T72A, T74E, R84S, D89E, M114L
VL: B3 VL
notes: Humanized anti-TROP2 antibody
B23: anti-TROP2 antibody 1B3 (antibody, V domains shown)
VH: QVQLQQSGAELVRPGVSVKISCKGSGYTFTDYSINWVKQSHAKSLEWIGVISTYYGDASYNQKFKGKATMTVDKSSSTAYMELARLTSEDSAIYYCARYGDGYNQFDYWGQGTTLTVSS
VL: DIVLTQSPASLAVSLGQRATISCRVSESVDSYGNNFMHWYQQKPGQPPKLLIYRASNLESGVPARFSGSGSGTDFTLTINPMEADDVATYYCQQSYEDPYTFGGGTKLEIK
notes: Mouse anti-human TROP2 hybridoma antibody
B24: anti-TROP2 antibody 15D9 (antibody, V domains shown)
VH: QVQLQQSGAELVRPGVSVKISCKGSGYTFTDYSIHWVKQSHAKSLEWIGVISSYYGDATYNQKFKGKATMTVDKSSSTAYMELARLTSEDSAIYYCALLGAYNYFDYWGQGTTLTVSS
VL: B23 VL with V25A, N35S, I52V, V62I, G72R, M82V, Y100P
notes: as for B23
B25: anti-TROP2 antibody 15A10 (antibody, V domains shown)
VH: EVQLEQSGPGLVQPSQSLSITCTVSGFSLTRYGVHWVRQSPGRSLEWLGVIWSGGNTDYNAAFISRLTITKDNSKSQVFFKMNSLQPNDTGVYYCAREDRYVGEFAYWGQGTLVTVSA
VL: B23 VL with P8T, V25A, N35S, M37I, V62I, G72R, M82V, Y96N, Y100R
notes: as for B23

Target: T1, human Trophoblast cell surface antigen 2 (TROP2) (human, UniProt P09758 27-274, limits assumed)
T1 construct: Analyte in the SPR experiments and immunogen; also called human TROP2
T1 sequence: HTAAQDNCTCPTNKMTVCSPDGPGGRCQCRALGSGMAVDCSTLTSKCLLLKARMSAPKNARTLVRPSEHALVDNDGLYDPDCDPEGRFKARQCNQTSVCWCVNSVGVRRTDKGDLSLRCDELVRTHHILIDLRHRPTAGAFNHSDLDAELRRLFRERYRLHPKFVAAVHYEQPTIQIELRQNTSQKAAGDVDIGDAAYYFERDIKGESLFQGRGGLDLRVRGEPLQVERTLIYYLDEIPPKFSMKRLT
Assay: SPR, TROP2 as analyte

B1 gave a Kd of 0.0577 nM.

B1 was tested, and the koff was 0.000104 s⁻¹.

For B1, the kon was 1.81e+06 M⁻¹ s⁻¹.

Target: T1, human Trophoblast cell surface antigen …
Assay: SPR affinity ranking, human TROP2

B2 and B3 are within 1.5-fold of each other in Kd: 0.182 nM for the first, 0.147 nM for the second.

Compared with B4, B5 is 7-fold higher in Kd: 0.22 nM for the first, 1.54 nM for the second. The first binds more tightly here.

Going from B6 to B7, the Kd rises from 0.052 nM to 0.0957 nM (1.8-fold).

Compared with B8, B9 is 6.3-fold lower in Kd: 0.238 nM for the first, 0.0375 nM for the second.

First: B10
Second: B11
The Kd of the first is 51-fold lower: 0.104 nM for the first, 5.34 nM for the second.

Compared with B12, B13 is 1.5-fold higher in Kd: 0.0911 nM for the first, 0.14 nM for the second. The first binds more tightly here.

First: B14
Second: B15
The Kd of the first is 86-fold higher: 10.4 nM for the first, 0.121 nM for the second.

B16 and B17 are within 1.5-fold of each other in Kd: 0.052 nM for the first, 0.067 nM for the second.

B1 and B18 are the same in Kd: 0.107 nM for the first, 0.107 nM for the second.

Going from B19 to B20, the Kd rises from 0.0916 nM to 865 nM (9400-fold).

Compared with B21, B22 is 2.5-fold lower in Kd: 0.114 nM for the first, 0.0457 nM for the second.

B2 and B3 are within 1.5-fold of each other in koff: 0.000266 s⁻¹ for the first, 0.000235 s⁻¹ for the second.

B4 and B5 are within 1.5-fold of each other in koff: 0.000299 s⁻¹ for the first, 0.000402 s⁻¹ for the second.

First: B6
Second: B7
The koff of the first is 1.9-fold lower: 7.38e-05 s⁻¹ for the first, 0.00014 s⁻¹ for the second.

Compared with B8, B9 is 5.8-fold lower in koff: 0.000338 s⁻¹ for the first, 5.78e-05 s⁻¹ for the second.

Going from B10 to B11, the koff rises from 0.000141 s⁻¹ to 0.000984 s⁻¹ (7-fold).

First: B12
Second: B13
The koff of the first is 1.5-fold lower: 0.000126 s⁻¹ for the first, 0.000192 s⁻¹ for the second.

Compared with B14, B15 is 9-fold lower in koff: 0.00177 s⁻¹ for the first, 0.000196 s⁻¹ for the second.

B16 and B17 are within 1.5-fold of each other in koff: 8.88e-05 s⁻¹ for the first, 0.00011 s⁻¹ for the second.

B1 and B18 are within 1.5-fold of each other in koff: 0.000149 s⁻¹ for the first, 0.000159 s⁻¹ for the second.

First: B19
Second: B20
The koff of the first is 140-fold lower: 0.000178 s⁻¹ for the first, 0.0251 s⁻¹ for the second.

First: B21
Second: B22
The koff of the first is 2-fold higher: 0.000151 s⁻¹ for the first, 7.74e-05 s⁻¹ for the second.

B2 and B3 are within 1.5-fold of each other in kon: 1.46e+06 M⁻¹ s⁻¹ for the first, 1.6e+06 M⁻¹ s⁻¹ for the second.

First: B4
Second: B5
The kon of the first is 5.2-fold higher: 1.36e+06 M⁻¹ s⁻¹ for the first, 261000 M⁻¹ s⁻¹ for the second.

B6 and B7 are within 1.5-fold of each other in kon: 1.42e+06 M⁻¹ s⁻¹ for the first, 1.46e+06 M⁻¹ s⁻¹ for the second.

B8 and B9 are within 1.5-fold of each other in kon: 1.42e+06 M⁻¹ s⁻¹ for the first, 1.54e+06 M⁻¹ s⁻¹ for the second.

Going from B10 to B11, the kon falls from 1.36e+06 M⁻¹ s⁻¹ to 184000 M⁻¹ s⁻¹ (7.4-fold).

B12 and B13 are within 1.5-fold of each other in kon: 1.38e+06 M⁻¹ s⁻¹ for the first, 1.37e+06 M⁻¹ s⁻¹ for the second.

Compared with B14, B15 is 9.6-fold higher in kon: 169000 M⁻¹ s⁻¹ for the first, 1.62e+06 M⁻¹ s⁻¹ for the second.

B16 and B17 are within 1.5-fold of each other in kon: 1.71e+06 M⁻¹ s⁻¹ for the first, 1.65e+06 M⁻¹ s⁻¹ for the second.

B1 and B18 are within 1.5-fold of each other in kon: 1.39e+06 M⁻¹ s⁻¹ for the first, 1.49e+06 M⁻¹ s⁻¹ for the second.

First: B19
Second: B20
The kon of the first is 78-fold higher: 1.95e+06 M⁻¹ s⁻¹ for the first, 24900 M⁻¹ s⁻¹ for the second.

B21 and B22 are within 1.5-fold of each other in kon: 1.32e+06 M⁻¹ s⁻¹ for the first, 1.69e+06 M⁻¹ s⁻¹ for the second.

Target: T2, TROP2 expressed on human cancer cell lines (human, UniProt P09758 27-323)
T2 construct: Endogenous TROP2 on human tumour cell lines; also called TROP2-expressing SKBR3 cells; HCC1954
T2 sequence: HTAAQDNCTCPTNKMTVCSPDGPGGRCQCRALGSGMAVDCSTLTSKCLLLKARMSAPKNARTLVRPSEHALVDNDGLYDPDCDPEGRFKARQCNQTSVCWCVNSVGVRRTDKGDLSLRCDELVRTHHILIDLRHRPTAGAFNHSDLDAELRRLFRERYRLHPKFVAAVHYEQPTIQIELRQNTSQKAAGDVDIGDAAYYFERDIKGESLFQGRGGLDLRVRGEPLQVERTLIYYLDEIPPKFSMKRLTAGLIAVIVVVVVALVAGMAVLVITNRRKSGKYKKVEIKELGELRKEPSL
Assay: flow cytometry of SKBR3 cells after overnight incubation with the antibody pre-mixed with pHAb-labelled secondary antibody (internalization assay); x axis pHAb-A, y axis Count
Protocol: FACS experiments were performed to verify that antibodies 1B3, 15D9, 15A10, 17B6, and 17D1 were internalized by SKBR3 cells. SKBR3 is a TROP2-expressing human breast carcinoma cell line. Briefly, 1.2×10⁵ SKBR3 cells were seeded into each 12-well plates and cultured overnight. 300 μL of 20 nM control antibody, 1B3, 15D9, 15A10, 17B6, or 17D1 (in DMEM-10) were mixed with 300 μL 60 nM pHAb-labelled secondary antibody for 15 minutes at room temperature in the dark. The labeled antibodies mixtures were added to the SKBR3 cells and incubated overnight. Following overnight incubation, the SKBR3 cells were trypsinized, washed twice with 1% BSA/PBS, and analyzed via flow cytometry.

B23: binds.
B24: binds.
B25: binds.
